Laboratory results as given in US20150330981A1 (published 2015).
Blank lines part the entries; values can stand above or below the molecule they belong to.

Tests used:
[1] = target: T1, GST-PGC-1β (1-367 aa; GST-P5) (UniProt Q8VHJ7)
T1 sequence: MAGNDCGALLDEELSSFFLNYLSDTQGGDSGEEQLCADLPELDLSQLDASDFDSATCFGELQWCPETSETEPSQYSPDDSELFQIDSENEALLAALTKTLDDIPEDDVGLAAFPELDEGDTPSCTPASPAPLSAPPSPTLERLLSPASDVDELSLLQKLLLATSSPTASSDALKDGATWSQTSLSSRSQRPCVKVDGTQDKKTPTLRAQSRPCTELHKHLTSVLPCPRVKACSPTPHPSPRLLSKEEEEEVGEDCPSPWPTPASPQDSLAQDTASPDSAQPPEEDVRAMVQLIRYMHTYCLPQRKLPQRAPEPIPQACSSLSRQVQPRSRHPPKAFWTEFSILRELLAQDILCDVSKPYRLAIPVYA

[2] = target: T2, in vitro transcribed/translated PGC-1β (FLAG-PGC), Q8VHJ7
T2 chain: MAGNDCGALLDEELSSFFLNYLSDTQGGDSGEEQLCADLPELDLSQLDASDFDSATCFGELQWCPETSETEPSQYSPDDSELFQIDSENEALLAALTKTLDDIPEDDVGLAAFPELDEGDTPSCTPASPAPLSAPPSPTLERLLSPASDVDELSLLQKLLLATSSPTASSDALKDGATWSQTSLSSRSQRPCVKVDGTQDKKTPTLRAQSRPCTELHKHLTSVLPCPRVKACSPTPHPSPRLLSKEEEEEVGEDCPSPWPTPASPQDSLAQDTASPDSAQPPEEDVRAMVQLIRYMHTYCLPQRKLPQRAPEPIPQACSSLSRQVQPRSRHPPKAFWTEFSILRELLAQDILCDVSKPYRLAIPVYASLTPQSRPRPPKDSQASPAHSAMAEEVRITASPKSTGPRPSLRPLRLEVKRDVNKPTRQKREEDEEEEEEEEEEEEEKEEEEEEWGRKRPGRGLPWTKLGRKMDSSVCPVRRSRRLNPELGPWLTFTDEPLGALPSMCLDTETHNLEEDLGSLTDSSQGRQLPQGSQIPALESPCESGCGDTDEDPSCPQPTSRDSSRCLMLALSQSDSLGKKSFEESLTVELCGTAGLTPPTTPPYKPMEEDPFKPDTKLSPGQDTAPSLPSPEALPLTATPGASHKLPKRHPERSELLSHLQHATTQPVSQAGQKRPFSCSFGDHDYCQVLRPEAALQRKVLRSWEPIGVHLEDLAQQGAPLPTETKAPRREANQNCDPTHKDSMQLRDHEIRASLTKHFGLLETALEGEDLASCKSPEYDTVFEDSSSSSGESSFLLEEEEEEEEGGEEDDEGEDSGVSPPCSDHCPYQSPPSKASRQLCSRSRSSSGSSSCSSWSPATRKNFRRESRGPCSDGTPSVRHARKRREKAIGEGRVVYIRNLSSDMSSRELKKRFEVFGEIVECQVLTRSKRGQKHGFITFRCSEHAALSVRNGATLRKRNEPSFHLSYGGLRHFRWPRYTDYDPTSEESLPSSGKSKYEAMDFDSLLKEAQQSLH

[3] = target: T3, HA PGC-1β (full-length mouse PGC-1β with HA tag), Q8VHJ7
T3 chain: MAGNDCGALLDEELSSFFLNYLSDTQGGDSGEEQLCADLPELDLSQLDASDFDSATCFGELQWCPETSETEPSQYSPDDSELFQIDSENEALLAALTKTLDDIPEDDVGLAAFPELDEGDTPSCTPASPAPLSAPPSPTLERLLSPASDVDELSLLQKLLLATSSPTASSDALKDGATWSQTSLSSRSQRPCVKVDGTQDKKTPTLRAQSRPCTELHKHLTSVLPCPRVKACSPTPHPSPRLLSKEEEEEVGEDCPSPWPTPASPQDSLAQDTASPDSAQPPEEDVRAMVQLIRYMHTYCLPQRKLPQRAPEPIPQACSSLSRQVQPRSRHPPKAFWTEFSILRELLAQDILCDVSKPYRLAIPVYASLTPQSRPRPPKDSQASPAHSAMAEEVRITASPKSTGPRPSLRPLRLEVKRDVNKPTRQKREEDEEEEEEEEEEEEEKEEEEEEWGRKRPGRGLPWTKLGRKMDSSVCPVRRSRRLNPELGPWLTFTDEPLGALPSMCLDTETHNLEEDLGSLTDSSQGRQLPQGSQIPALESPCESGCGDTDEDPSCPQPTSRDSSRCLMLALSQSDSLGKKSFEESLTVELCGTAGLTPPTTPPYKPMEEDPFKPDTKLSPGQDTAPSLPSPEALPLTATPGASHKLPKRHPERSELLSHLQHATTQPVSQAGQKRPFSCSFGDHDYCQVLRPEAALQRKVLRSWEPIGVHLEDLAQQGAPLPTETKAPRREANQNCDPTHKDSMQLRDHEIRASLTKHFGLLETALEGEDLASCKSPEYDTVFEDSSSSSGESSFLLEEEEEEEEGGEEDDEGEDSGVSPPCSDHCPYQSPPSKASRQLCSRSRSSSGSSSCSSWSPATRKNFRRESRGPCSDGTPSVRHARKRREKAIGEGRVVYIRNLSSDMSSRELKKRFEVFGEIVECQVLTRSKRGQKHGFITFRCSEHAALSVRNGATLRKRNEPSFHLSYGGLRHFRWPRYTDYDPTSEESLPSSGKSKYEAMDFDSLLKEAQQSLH

[4] = target: T4, HA PGC-1β (full-length mouse PGC-1β with HA tag) (mouse, UniProt Q8VHJ7 1-1014); assay: cell-based or functional assay
T4 sequence (looked up): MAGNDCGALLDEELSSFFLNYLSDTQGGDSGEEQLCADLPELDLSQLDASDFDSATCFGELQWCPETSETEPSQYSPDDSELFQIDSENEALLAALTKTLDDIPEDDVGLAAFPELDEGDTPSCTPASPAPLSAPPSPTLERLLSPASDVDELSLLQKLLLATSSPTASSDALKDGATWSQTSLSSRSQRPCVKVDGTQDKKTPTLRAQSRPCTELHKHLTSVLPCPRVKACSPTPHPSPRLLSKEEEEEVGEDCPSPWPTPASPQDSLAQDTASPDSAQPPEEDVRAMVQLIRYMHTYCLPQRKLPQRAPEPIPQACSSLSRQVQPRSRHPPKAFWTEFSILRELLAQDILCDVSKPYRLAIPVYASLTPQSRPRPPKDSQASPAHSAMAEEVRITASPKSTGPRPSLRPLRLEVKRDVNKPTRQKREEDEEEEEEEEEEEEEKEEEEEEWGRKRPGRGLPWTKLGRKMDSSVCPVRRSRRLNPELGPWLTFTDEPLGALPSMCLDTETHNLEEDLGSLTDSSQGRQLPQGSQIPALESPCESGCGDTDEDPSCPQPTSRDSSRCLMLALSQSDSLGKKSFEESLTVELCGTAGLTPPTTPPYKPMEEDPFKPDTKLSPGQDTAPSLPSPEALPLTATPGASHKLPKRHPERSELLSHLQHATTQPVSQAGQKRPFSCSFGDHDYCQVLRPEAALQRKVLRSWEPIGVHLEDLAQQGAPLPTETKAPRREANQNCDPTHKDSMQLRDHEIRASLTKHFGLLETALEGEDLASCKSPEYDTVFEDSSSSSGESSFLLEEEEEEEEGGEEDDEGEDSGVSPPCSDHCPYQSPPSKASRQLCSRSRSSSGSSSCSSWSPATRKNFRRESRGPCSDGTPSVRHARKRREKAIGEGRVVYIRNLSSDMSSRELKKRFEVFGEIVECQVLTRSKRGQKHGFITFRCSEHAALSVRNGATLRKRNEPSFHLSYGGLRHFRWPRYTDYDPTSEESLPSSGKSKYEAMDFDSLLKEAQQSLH

[5] = target: T4, HA PGC-1β (full-length mouse PGC-1β …); assay: co-immunoprecipitation with anti-FLAG from HEK-293T extract, anti-HA Western blot
Procedure: Whether synoviolin and PGC-1β actually form a complex in in vivo was investigated. Specifically, a plasmid for expressing PGC-1β with HA tag (HA PGC-1β) and a plasmid for expressing synoviolin with FLAG tag (SYVN1/FLAG) or the modified synoviolin with FLAG tag (SYVN1ΔSyU/FLAG) were transfected in HEK-293T cells. Whole cell extract from the HEK-293T cells transfected with the expression plasmids was prepared to immunoprecipitate using anti-FLAG antibody. Proteins bound to the anti-FLAG antibody were eluted and separated by SDS-PAGE, and Western blot was performed using anti-HA antibody and the anti-FLAG antibody.

Molecule: MBP-SYVN1 ΔTM-His
- in vitro ubiquitination assay (E1-His, UbcH5C, HA-ubiquitin; GST capture, Western blot) [1]: synoviolin (SYVN1) has directly ubiquitinated PGC-1β

B1: modified synoviolin fused to GST (syno(236-338)) (protein)
chain: KVHTFPLFAIRPMYLAMRQFKKAVTDAIMSRRAIRNMNTLYPDATPEELQAMDNVCIICREEMVTGAKRLPCNHIFHTSCLRSWFQRQQTCPTCRMDVLRASL
- in vitro ubiquitination assay [2]: polyubiquitinated PGC-1β was detected under the condition with the presence of all of ATP, PK-His-HA-Ub, E1-His, UBE2G2-His, and syno(236-338)

- half-life of PGC-1β in cells (cycloheximide chase, Western blot) [4]: 3.6 h
- binding result [5]: no binding
B2: modified synoviolin with FLAG tag (SYVN1ΔSyU/FLAG) (enzyme, UniProt Q86TM6 1-617, looked up)
chain: MFRTAVMMAASLALTGAVVAHAYYLKHQFYPTVVYLTKSSPSMAVLYIQAFVLVFLLGKVMGKVFFGQLRAAEMEHLLERSWYAVTETCLAFTVFRDDFSPRFVALFTLLLFLKCFHWLAEDRVDFMERSPNISWLFHCRIVSLMFLLGILDFLFVSHAYHSILTRGASVQLVFGFEYAILMTMVLTIFIKYVLHSVDLQSENPWDNKAVYMLYTELFTGFIKVLLYMAFMTIMINMNTLYPDATPEELQAMDNVCIICREEMVTGAKRLPCNHIFHTSCLRSWFQRQQTCPTCRMDVLRASLPAQSPPPPEPADQGPPPAPHPPPLLPQPPNFPQGLLPPFPPGMFPLWPPMGPFPPVPPPPSSGEAVAPPSTSAAALSRPSGAATTTAAGTSATAASATASGPGSGSAPEAGPAPGFPFPPPWMGMPLPPPFAFPPMPVPPAGFAGLTPEELRALEGHERQHLEARLQSLRNIHTLLDAAMLQINQYLTVLASLGPPRPATSVNSTEETATTVVAAASSTSIPSSEATTPTPGASPPAPEMERPPAPESVGTEEMPEDGEPDAAELRRRRLQKLESPVAH
notes: Deletion construct expressed in cells; also called synoviolin ΔSyU/FLAG; Synoviolin ASyU/FLAG; not shown: FLAG tag
- half-life of PGC-1β (cycloheximide chase, MEF Syno-/-) [3]: SYVN1 ΔSyU has not so promoted degradation of PGC-1β
